# Test results from US20060041111A1 (published 2006).
# Columns and labels:
# GST-Src SH3 domain = GST-Src SH3 domain (UniProt P12931 84-145); assay: GST pull-down, lysate in SDS containing RIPA buffer
# Method: (§1) In transient expression studies, with epitope tagged DOS constructs in both 293T cell and COS cells, a protein of the expected size is readily detected after cell lysis with buffers containing detergents, such as RIPA.
# (§2) After incubating epitope tagged DOS lysates in SDS containing RIPA buffer with beads carrying GST-Crk-N terminal SH3 domain, DOS+SSB and DOS−SSB was “pulled down”. […] No binding to DOS−SSB was observed. […] The proline rich, C terminus of DOS engages with Src and Crk and the loss of Crk binding is seen in human cancer. Furthermore, no binding to SH3 domain of Abl and Crk-C terminus was observed.
# [1] = target: T1, DOS+SSB P>L (DOS+SSB with the proline to leucine mutation at amino acid 1718), epitope tagged (human, UniProt Q8N1I0 1-1966); assay: as above
# T1 construct: Used as lysate of transfected cells; also called DOS+SSB with proline mutation; DOS with the proline mutation
# Method: as §1, §2
# [2] = target: T2, DOS+SSB (human DOS protein of 1966 amino acids, with Src SH3 domain binding site), epitope tagged (human, UniProt Q8N1I0 1-1966); assay: pull-down with SH3 domains
# T2 construct: Full-length isoform cloned in pcDNA3.1, transiently expressed in 293T or COS cells and used as cell lysate in RIPA buffer; also called DOCK 3; Deleted in Osteosarcoma
# Method: as §1, §2
binder,measurement,setting,value
"DOS-SSB (alternatively spliced human DOS protein of 1928 amino acids, without Src SH3 domain binding site), epitope tagged (other, not shown: small tags and cut ends, Used as lysate of transfected cells) MWIPTEHEKYGVVIASFRGTVPYGLSLEIGDTVQILEKCDGWYRGFALKNPNIKGIFPSSYVHLKNACVKNKGQFEMVIPTEDSVITEMTSTLRDWGTMWKQLYVRNEGDLFHRLWHIMNEILDLRRQVLVGHLTHDRMKDVKRHITARLDWGNEQLGLDLVPRKEYAMVDPEDISITELYRLMEHRHRKKDTPVQASSHHLFVQMKSLMCSNLGEELEVIFSLFDSKENRPISERFFLRLNRNGLPKAPDKPERHCSLFVDLGSSELRKDIYITVHIIRIGRMGAGEKKNACSVQYRRPFGCAVLSIADLLTGETKDDLILKVYMCNTESEWYQIHENIIKKLNARYNLTGSNAGLAVSLQLLHGDIEQIRREYSSVFSHGVSITRKLGFSNIIMPGEMRNDLYITIERGEFEKGGKSVARNVEVTMFIVDSSGQTLKDFISFGSGEPPASEYHSFVLYHNNSPRWSELLKLPIPVDKFRGAHIRFEFRHCSTKEKGEKKLFGFSFVPLMQEDGRTLPDGTHELIVHKCEENTNLQDTTRYLKLPFSKGIFLGNNNQAMKATKESFCITSFLCSTKLTQNGDMLDLLKWRTHPDKITGCLSKLKEIDGSEIVKFLQDTLDTLFGILDENSQKYGSKVFDSLVHIINLLQDSKFHHFKPVMDTYIESHFAGALAYRDLIKVLKWYVDRITEAERQEHIQEVLKAQEYIFKYIVQSRRLFSLATGGQNEEEFRCCIQELLMSVRFFLSQESKGSGALSQSQAVFLSSFPAVYSELLKLFDVREVANLVQDTLGSLPTILHVDDSLQAIKLQCIGKTVESQLYTNPDSRYILLPVVLHHLHIHLQEQKDLIMCARILSNVFCLIKKNSSEKSVLEEIDVIVASLLDILLRTILEITSRPQPSSSAMRFQFQDVTGEFVACLLSLLRQMTDRHYQQLLDSFNTKEELRDFLLQIFTVFRILIRPEMFPKDWTVMRLVANNVIITTVLYLSDALRKNFLNENFDYKIWDSYFYLAVIFINQLCLQLEMFTPSKKKKVLEKYGDMRVTMGCEIFSMWQNLGEHKLHFIPALIGPFLEVTLIPQPGLRNVMIPIFHDMMDWEQRRSGNFKQVEAKLIDKLDSLMSEGKGDETYRELFNSILLKKIERETWRESGVSLIATVTRLMERLLDYRDCMKMGEVDGKKIGCTVSLLNFYKTELNKEEMYIRYIHKLYDLHLKAQNFTEAAYTLLLYDELLEWSDRPLREFLTYPMQTEWQRKEHLHLTIIQNFDRGKCWENGIILCRKIAEQYESYYDYRNLSKMRMMEASLYDKIMDQQRLEPEFFRVGFYGKKFPFFLRNKEFVCRGHDYERLEAFQQRMLNEFPHAIAMQHANQPDETIFQAEAQYLQIYAVTPIPESQEVLQREGVPDNIKSFYKVNHIWKFRYDRPFHKGTKDKENEFKSLWVERTSLYLVQSLPGISRWFEVEKREVVEMSPLENAIEVLENKNQQLKTLISQCQTRQMQNINPLTMCLNGVIDAAVNGGVSRYQEAFFVKEYILSHPEDGEKIARLRELMLEQAQILEFGLAVHEKFVPQDMRPLHKKLVDQFFVMKSSLGIQEFSACMQASPVHFPNGSPRVCRNSAPASVSPDGTRVIPRRSPLSYPAVNRYSSSSLSSQASAEVSNITGQSESSDEVFNMQPSPSTSSLSSTHSASPNVTSSAPSSARASPLLSDKHKHSRENSCLSPRERPCSAIYPTPVEPSQRMLFNHIGDGALPRSDPNLSAPEKASPARHTTSVSPSPAGRSPLKGSVQSFTPSPVEYHSPGLISNSPVLSGSYSSGISSLSRCSTSETSGFENQVNEQSAPLPVPVPVPVPSYGGEEPVRKESKTPPPYSVYERTLRRPVPLPHSLSIPVTSEPPALPPKPLAARSSHLENGARRTDPGPRPRPLPRKVSQL",binding result,GST-Src SH3 domain,no binding
"GST-Crk-N terminal SH3 domain (other, UniProt P46108 132-192, looked up, domain: N terminal SH3 domain; GST fusion on beads for the pull-down; also called adaptor protein Crk; not shown: glutathione S-transferase (GST) fusion partner) EEAEYVRALFDFNGNDEEDLPFKKGDILRIRDKPEEQWWNAEDSEGKRGMIPVPYVEKYRP",binding result,[1],no binding
"SH3 domain of Crk-C terminus (other, UniProt P46108 235-296, looked up, domain: SH3 domain of Crk-C terminus) NGPIYARVIQKRVPNAYDKTALALEVGELVKVTKINVSGQWEGECNGKRGHFPFTHVRLLDQ",binding result,[2],no binding
